Test results as given in patent publication US20220041726A1 (Dana-Farber, published 2022).

Molecular target: T1, mouse PD-1 (mouse, UniProt Q02242 25-288)
T1 construct: also called 300-mouse PD-1 transfectants; 300-PD-1 transfectants
T1 sequence: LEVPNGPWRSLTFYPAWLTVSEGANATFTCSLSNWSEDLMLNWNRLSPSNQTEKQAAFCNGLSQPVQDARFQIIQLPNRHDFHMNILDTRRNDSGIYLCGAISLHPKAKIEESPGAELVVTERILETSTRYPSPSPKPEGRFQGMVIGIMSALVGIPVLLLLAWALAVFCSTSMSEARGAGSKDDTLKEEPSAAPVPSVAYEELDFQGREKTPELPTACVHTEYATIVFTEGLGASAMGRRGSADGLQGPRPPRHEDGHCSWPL
Assay: hybridoma screened by flow cytometry on PD-1 transfectants; described in words only
Excerpt: The mice were immunized first with human PD-1-mIgG2a fusion protein (made in Freeman lab) in complete Freund's adjuvant and thereafter with alternating doses of human PD-1-mIgG2a fusion protein and mouse PD-1-Ig fusion protein in incomplete Freund's adjuvant. Mice were given a final boost with antigen and fused with SP2/0 myeloma cells. The PD-1 specific hybridomas were first identified when this fusion was screened by flow cytometry on 300-human PD-1 and 300-mouse PD-1 transfectants. Hybridomas were subcloned to stability. The mAbs were characterized for their capacity to bind to human and/or mouse PD-1 and for their affinity.

binding result: binds
B1: 8H3 mouse anti-mouse PD-1 mAb (antibody, mouse IgG1, V domains shown)
VH: QVQLQQSGAELARPGASVKMSCKASGYTFTSYTMHWVKQRPGQGLEWIGYIHPSTGYIYYNQKFKDKATLTADKSSSTAYMQLSSLTSEDSAVYYCARKGTYLFDYWGQGTTLTVSS
VL: DIVMTQSQKFMSTSVGDRVSVTCKASQNVGTNVAWYQQKPGQSPKALIYSASYRYSGVPDRFTGSGSGTDFTLTISNMQSEDLAEYFCQQYNNYPLTFGAGTMLELK
notes: the light chain is kappa; also called 332.8H3; αPD-1 mAb (8H3)
